# According to paper PMC6424611:
# Legend:
# Conditions in all cases: reference: unphosphorylated peptide; sites S732
# MAST2 PDZ domain = MAST2 PDZ domain (UniProt Q6P0Q8); assay: SPR, biotin-peptide on streptavidin chip
# GOPC PDZ domain = GOPC PDZ domain (UniProt Q9HD26); assay: SPR, biotin-peptide on streptavidin chip
# MAST1 PDZ domain = MAST1 PDZ domain (UniProt Q9Y2H9); assay: SPR, biotin-peptide on streptavidin chip
# ARHGEF12 PDZ domain = ARHGEF12 PDZ domain (UniProt Q9NZN5); assay: SPR, biotin-peptide on streptavidin chip
# PDZD7 PDZ domain 3 = PDZD7 PDZ domain 3 (UniProt Q9H5P4); assay: SPR, biotin-peptide on streptavidin chip
# LAP2 PDZ domain = LAP2 PDZ domain (UniProt Q96RT1); assay: automated holdup, biotin-peptide resin
# SHROOM2 PDZ domain = SHROOM2 PDZ domain (UniProt Q13796); assay: automated holdup, biotin-peptide resin
# DLG4 PDZ domain 2 = DLG4 PDZ domain 2 (UniProt P78352); assay: automated holdup, biotin-peptide resin
# PTPN3 PDZ domain = PTPN3 PDZ domain (UniProt P26045); assay: automated holdup, biotin-peptide resin
# NHERF2 PDZ domain 2 = NHERF2 PDZ domain 2 (UniProt Q15599); assay: automated holdup, biotin-peptide resin
# SHANK3 PDZ domain = SHANK3 PDZ domain (UniProt Q9BYB0); assay: automated holdup, biotin-peptide resin
# HTRA1 PDZ domain = HTRA1 PDZ domain (UniProt Q92743); assay: automated holdup, biotin-peptide resin
# LIMK2 PDZ domain = LIMK2 PDZ domain (UniProt P53671); assay: automated holdup, biotin-peptide resin
# GRID2IP PDZ domain 1 = GRID2IP PDZ domain 1 (UniProt A4D2P6); assay: automated holdup, biotin-peptide resin
# MAGI1 PDZ domain 2 = MAGI1 PDZ domain 2 (UniProt Q96QZ7); assay: automated holdup, biotin-peptide resin
# GRASP PDZ domain = GRASP PDZ domain (UniProt Q7Z6J2); assay: automated holdup, biotin-peptide resin
# GORASP1 PDZ domain = GORASP1 PDZ domain (UniProt Q9BQQ3); assay: automated holdup, biotin-peptide resin
# MAGI2 PDZ domain 2 = MAGI2 PDZ domain 2 (UniProt Q86UL8); assay: automated holdup, biotin-peptide resin
# DFNB31 PDZ domain 3 = DFNB31 PDZ domain 3 (UniProt Q9P202); assay: automated holdup, biotin-peptide resin
# LNX1 PDZ domain 3 = LNX1 PDZ domain 3 (UniProt Q8TBB1); assay: automated holdup, biotin-peptide resin
# PDZRN3 PDZ domain 1 = PDZRN3 PDZ domain 1 (UniProt Q9UPQ7); assay: automated holdup, biotin-peptide resin
# NHERF3 PDZ domain 1 = NHERF3 PDZ domain 1 (UniProt Q5T2W1); assay: automated holdup, biotin-peptide resin
# MAGI3 PDZ domain 2 = MAGI3 PDZ domain 2 (UniProt Q5TCQ9); assay: automated holdup, biotin-peptide resin
# ARHGEF11 PDZ domain = ARHGEF11 PDZ domain (UniProt O15085); assay: automated holdup, biotin-peptide resin
# GORASP2 PDZ domain = GORASP2 PDZ domain (UniProt Q9H8Y8); assay: automated holdup, biotin-peptide resin
# PPP1R9A PDZ domain = PPP1R9A PDZ domain (UniProt Q9ULJ8); assay: automated holdup, biotin-peptide resin
# Sequence of DFNB31 PDZ domain 3 (Q9P202 whole entry, looked up, the tested form may be a part): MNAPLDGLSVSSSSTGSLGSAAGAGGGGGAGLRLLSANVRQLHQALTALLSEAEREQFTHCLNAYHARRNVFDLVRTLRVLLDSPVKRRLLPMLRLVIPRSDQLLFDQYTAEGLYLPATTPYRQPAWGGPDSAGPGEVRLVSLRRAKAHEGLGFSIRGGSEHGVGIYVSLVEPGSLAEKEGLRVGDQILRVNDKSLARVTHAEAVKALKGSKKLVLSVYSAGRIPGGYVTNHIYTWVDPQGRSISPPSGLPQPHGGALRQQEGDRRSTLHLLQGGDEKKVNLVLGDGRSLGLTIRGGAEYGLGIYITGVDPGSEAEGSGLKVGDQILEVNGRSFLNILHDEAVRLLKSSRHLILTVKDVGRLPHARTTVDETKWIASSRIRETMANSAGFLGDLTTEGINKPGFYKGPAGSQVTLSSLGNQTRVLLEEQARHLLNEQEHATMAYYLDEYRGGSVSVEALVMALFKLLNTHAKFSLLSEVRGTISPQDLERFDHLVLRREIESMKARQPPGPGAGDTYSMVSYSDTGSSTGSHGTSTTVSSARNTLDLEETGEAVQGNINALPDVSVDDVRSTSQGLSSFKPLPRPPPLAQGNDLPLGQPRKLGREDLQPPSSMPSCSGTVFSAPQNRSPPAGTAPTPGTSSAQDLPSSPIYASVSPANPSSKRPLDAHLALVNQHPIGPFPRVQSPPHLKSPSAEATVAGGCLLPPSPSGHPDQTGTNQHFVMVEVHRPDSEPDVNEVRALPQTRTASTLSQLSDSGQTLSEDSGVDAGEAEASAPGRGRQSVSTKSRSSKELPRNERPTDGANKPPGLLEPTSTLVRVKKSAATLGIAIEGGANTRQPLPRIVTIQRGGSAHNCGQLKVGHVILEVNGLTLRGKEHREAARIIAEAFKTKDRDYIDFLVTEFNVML
# Sequence of HTRA1 PDZ domain (Q92743 whole entry, looked up, the tested form may be a part): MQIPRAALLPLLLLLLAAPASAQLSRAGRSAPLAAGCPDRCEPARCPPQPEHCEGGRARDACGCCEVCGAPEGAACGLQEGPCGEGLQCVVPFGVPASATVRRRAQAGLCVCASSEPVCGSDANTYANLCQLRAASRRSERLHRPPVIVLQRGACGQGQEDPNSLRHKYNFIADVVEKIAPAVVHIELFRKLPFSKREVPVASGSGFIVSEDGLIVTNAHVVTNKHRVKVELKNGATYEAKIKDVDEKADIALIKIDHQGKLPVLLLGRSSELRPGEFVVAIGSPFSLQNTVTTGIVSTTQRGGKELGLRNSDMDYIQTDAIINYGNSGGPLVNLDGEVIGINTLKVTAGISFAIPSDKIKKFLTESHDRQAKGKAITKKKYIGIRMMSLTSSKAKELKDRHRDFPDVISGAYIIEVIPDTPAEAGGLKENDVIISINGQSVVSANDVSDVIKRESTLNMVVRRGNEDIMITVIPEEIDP
# Sequence of MAGI1 PDZ domain 2 (Q96QZ7 whole entry, looked up, the tested form may be a part): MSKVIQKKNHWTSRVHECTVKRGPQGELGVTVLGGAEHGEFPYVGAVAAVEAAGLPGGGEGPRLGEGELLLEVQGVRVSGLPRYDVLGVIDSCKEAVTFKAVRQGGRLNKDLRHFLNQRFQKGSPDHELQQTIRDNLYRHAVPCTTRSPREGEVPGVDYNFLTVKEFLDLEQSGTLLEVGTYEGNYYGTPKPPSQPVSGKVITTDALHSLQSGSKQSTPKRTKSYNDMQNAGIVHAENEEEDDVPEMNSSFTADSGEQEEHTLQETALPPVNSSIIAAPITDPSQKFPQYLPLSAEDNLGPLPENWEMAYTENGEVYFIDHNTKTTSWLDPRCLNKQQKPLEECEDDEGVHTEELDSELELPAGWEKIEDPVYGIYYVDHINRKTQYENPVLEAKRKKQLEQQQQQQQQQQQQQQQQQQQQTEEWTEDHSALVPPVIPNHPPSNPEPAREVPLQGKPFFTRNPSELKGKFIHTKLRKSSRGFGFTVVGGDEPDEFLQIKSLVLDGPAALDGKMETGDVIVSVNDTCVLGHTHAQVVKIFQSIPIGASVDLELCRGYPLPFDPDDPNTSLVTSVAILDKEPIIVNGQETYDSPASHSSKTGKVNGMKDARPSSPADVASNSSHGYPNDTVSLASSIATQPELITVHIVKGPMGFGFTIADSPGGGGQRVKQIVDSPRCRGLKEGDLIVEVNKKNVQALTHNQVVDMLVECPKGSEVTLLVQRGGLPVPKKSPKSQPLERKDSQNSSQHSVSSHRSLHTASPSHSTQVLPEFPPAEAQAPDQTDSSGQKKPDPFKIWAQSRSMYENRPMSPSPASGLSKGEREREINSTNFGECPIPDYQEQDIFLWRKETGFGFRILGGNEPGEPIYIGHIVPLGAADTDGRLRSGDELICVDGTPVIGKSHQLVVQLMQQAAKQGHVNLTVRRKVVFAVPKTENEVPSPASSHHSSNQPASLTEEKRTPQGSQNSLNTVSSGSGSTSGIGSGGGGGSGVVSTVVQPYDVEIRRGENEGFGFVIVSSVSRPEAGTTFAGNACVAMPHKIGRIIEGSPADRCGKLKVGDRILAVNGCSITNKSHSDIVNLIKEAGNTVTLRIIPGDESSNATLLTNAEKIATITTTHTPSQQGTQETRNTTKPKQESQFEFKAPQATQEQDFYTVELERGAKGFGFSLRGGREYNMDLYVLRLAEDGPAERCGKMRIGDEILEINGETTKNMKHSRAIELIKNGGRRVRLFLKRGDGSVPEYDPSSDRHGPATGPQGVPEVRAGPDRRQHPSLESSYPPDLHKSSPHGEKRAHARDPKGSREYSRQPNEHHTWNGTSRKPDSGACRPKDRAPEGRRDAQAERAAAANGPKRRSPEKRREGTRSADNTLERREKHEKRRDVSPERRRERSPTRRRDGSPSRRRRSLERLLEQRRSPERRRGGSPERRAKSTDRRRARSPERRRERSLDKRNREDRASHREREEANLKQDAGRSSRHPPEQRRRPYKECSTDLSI
# Sequence of NHERF2 PDZ domain 2 (Q15599 whole entry, looked up, the tested form may be a part): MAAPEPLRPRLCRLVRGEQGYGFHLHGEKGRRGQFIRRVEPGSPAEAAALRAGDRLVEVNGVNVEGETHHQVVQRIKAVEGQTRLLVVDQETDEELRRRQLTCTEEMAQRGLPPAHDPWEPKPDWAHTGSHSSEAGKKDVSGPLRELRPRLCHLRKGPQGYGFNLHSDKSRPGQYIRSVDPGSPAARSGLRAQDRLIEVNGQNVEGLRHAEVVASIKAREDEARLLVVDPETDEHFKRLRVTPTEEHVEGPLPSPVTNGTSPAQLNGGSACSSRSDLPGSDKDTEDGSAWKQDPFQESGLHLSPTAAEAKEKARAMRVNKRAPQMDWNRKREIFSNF
# Sequence of PTPN3 PDZ domain (P26045 whole entry, looked up, the tested form may be a part): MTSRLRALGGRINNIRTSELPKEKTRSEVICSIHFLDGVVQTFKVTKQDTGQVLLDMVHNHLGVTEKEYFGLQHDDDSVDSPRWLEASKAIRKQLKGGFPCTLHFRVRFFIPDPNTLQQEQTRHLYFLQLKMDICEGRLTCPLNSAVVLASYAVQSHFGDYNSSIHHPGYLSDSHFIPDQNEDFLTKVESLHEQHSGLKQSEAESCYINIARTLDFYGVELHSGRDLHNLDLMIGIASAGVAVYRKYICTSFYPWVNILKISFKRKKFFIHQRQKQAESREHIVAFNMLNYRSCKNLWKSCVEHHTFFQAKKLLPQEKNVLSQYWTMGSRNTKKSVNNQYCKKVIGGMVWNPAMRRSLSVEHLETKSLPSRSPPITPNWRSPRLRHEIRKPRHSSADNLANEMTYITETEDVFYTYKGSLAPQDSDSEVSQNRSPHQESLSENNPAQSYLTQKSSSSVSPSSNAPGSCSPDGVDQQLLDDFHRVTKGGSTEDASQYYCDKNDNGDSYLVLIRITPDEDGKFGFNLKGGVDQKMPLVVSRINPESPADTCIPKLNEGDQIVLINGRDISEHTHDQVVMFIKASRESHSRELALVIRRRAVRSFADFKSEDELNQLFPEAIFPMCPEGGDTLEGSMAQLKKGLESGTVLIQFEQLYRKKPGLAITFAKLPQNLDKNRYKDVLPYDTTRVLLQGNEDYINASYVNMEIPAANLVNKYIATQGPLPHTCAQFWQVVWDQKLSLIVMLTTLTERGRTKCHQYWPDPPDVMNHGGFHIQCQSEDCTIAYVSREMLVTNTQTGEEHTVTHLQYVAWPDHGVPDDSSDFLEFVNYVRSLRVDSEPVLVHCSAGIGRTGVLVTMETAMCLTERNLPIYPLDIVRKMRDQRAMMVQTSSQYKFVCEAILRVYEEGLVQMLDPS
# Sequence of GRASP PDZ domain (Q7Z6J2 whole entry, looked up, the tested form may be a part): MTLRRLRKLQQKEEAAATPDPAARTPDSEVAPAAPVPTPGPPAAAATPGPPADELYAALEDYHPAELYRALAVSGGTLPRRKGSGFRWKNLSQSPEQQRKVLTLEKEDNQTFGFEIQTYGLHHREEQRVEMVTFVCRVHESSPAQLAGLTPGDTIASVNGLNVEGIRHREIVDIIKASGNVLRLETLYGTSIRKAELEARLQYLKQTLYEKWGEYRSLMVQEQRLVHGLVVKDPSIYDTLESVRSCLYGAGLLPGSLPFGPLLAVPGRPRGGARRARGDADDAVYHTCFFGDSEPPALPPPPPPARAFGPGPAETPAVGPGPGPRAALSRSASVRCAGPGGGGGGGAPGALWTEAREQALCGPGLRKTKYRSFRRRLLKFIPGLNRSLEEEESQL
# Sequence of GORASP1 PDZ domain (Q9BQQ3 whole entry, looked up, the tested form may be a part): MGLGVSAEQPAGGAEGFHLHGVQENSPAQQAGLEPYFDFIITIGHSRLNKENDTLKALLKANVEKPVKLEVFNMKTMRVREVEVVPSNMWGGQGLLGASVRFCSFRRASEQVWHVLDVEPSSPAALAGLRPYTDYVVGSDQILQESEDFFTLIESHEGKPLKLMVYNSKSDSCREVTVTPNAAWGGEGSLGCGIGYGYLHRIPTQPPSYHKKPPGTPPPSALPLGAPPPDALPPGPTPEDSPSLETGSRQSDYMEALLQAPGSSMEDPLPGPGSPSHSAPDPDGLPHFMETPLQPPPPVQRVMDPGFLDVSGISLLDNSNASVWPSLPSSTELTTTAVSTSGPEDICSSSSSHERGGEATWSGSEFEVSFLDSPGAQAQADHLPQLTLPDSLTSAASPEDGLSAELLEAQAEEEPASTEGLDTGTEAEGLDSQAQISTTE
substance,measurement,setting,value
RSK1 (ribosomal S6 kinase 1) 725-735 (from UniProt Q15418) pS732 peptide,KD,MAST2 PDZ domain,weaker; reference 7.02 ± 0.27
same,KD,GOPC PDZ domain,weaker; reference 8.92 ± 0.44
same,KD,MAST1 PDZ domain,weaker; reference 20 ± 1
same,KD,ARHGEF12 PDZ domain,lost; reference 2.79 ± 0.11
same,KD,PDZD7 PDZ domain 3,weaker; reference 6.2 ± 0.9
same,other: holdup binding intensity (BI),LAP2 PDZ domain,gained; reference −0.02 ± 0.05
same,other: holdup binding intensity (BI),SHROOM2 PDZ domain,gained; reference 0.00 ± 0.01
same,other: holdup binding intensity (BI),DLG4 PDZ domain 2,gained; reference 0.11 ± 0.03
same,other: holdup binding intensity (BI),PTPN3 PDZ domain,gained; reference 0.05 ± 0.02
same,other: holdup binding intensity (BI),NHERF2 PDZ domain 2,lost; reference 0.20 ± 0.04
same,other: holdup binding intensity (BI),SHANK3 PDZ domain,lost; reference 0.27 ± 0.03
same,other: holdup binding intensity (BI),HTRA1 PDZ domain,weaker; reference 0.44 ± 0.03
same,other: holdup binding intensity (BI),LIMK2 PDZ domain,gained; reference 0.01 ± 0.06
same,other: holdup binding intensity (BI),GRID2IP PDZ domain 1,gained; reference 0.06 ± 0.02
same,other: holdup binding intensity (BI),MAGI1 PDZ domain 2,weaker; reference 0.43 ± 0.02
same,other: holdup binding intensity (BI),GRASP PDZ domain,lost; reference 0.29 ± 0.01
same,other: holdup binding intensity (BI),GORASP1 PDZ domain,gained; reference 0.01 ± 0.02
same,other: holdup binding intensity (BI),MAGI2 PDZ domain 2,weaker; reference 0.42 ± 0.01
same,other: holdup binding intensity (BI),DFNB31 PDZ domain 3,lost; reference 0.23 ± 0.04
same,other: holdup binding intensity (BI),LNX1 PDZ domain 3,gained; reference 0.04 ± 0.02
same,other: holdup binding intensity (BI),PDZRN3 PDZ domain 1,stronger; reference 0.26 ± 0.01
same,other: holdup binding intensity (BI),NHERF3 PDZ domain 1,lost; reference 0.41 ± 0.01
same,other: holdup binding intensity (BI),MAGI3 PDZ domain 2,same; reference 0.28 ± 0.03
same,other: holdup binding intensity (BI),ARHGEF11 PDZ domain,lost; reference 0.28 ± 0.06
same,other: holdup binding intensity (BI),GORASP2 PDZ domain,weaker; reference 0.41 ± 0.02
same,other: holdup binding intensity (BI),PPP1R9A PDZ domain,gained; reference 0.00 ± 0.02
